Measurements from patent publication US11299524B2, “KIF13B-derived peptide and method of inhibiting angiogenesis” (THE BOARD OF TRUSTEES OF THE UNIVERSITY OF ILLINOIS, priority 2016, dated 2022).

Columns and labels:
[1] = molecular target: VEGFR2 (Homo sapiens, UniProt P35968); assay: surface plasmon resonance (SPR) with BIACORE; format: binding; set-up: recombinant cytosolic domain of kinases (Fisher Scientific); purchased Fisher Scientific; details: peptide on avidin-coated chip, recombinant cytosolic domain of kinase
Chain of VEGFR2 (P35968 786-1356 limits assumed, species assumed): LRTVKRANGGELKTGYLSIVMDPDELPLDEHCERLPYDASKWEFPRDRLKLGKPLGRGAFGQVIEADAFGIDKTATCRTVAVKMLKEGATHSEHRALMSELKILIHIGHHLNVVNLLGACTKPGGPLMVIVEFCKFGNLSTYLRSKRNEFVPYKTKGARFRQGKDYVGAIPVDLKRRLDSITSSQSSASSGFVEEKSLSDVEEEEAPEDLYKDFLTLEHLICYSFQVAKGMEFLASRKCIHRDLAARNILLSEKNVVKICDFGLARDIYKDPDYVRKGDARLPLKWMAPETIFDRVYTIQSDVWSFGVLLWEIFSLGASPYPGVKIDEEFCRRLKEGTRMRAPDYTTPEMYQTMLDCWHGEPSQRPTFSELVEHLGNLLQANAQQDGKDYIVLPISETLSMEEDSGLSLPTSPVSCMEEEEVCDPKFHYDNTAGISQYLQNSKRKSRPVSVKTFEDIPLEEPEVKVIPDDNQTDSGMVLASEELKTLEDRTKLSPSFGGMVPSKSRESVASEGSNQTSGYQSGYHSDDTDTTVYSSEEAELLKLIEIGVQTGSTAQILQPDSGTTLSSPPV
Method: (§1) Additionally, the sequence of DUF2C5 is highly conserved in mammalian KIF13B. […] To further test the specificity of DUF2C5, pull-down of proteins was conducted using DUF2C5 or control peptide (CT23) immobilized on streptavidin beads followed by mass spec analysis of the binding proteins. This analysis detected the presence of KIF13B, VEGFR2, and co-receptor NRP1 (number of hits were 28, 11, and 5, respectively). Tie2, Par1, S1PR1, and FGFR were not found. Other cargo for KIF13B (e.g., CentA, hDlg) were also not found. […] The affinity of each receptor tyrosine kinase was subsequently tested via surface plasmon resonance (SPR) with BIACORE (UIC, RRC), using DUF2C5 and CT23 on an avidin-coated chip, and recombinant cytosolic domain of kinases (Fisher Scientific).

[2] = system: HUVECs; assay: scratch wound healing assay; format: cell-based, human
Method: Collagen invasion assay was performed as previously described (Kang, et al. (2011) J. Biol. Chem. 286:42017-26). In vitro capillary network formation on […] (BD Biosciences, San Jose, Calif.) and scratch wound healing assay were performed as previously described (Humtsoe, et al. (2010) Mol. Cell Biol. 30:1593-1606). Fibrin gel sprouting assay was performed as described by Nakatsu & Hughes ((2008) Methods Enzymol. 443:65-82). VEGF (2.2 nmol/L) stimulation was used for all in vitro angiogenesis assays. Transwell migration assay was performed as described by Kaplan, et al. ((2011) Free Radical Res. 45:1124-35) using VEGF (4.4 nmol/L), sphingosine-1-phosphate (S1P) (1 μmol/L), or basic fibroblast growth factor (bFGF) (50 ng/mL) in the presence or absence of kinesin-derived angiogenesis inhibitor (DUF2C5; residues 1238-1260 of KIF13B) at varying concentrations.
EC migration in response to DUF2C5 was determined using the scratch wound healing assay. […] The […] migration assay was also employed to determine whether the inhibitory effect of DUF2C5 on EC migration was specific to VEGF. HUVECs were placed in the […] chamber with or without DUF2C5 or CT23. […] PBS and CT23 had no effect on EC migration induced by all stimuli.

[3] = molecular target: T1, EGFR (Homo sapiens, UniProt P00533); assay: pull-down on streptavidin beads followed by mass spec analysis; format: binding; details: peptide immobilized on streptavidin beads
T1 construct: endogenous in cells
Method: as §1

[4] = molecular target: T2, PDGFRβ (Homo sapiens, UniProt P09619); assay: as above; format: binding; details: peptide immobilized on streptavidin beads
T2 construct: endogenous in cells
T2 sequence (P09619 33-1106): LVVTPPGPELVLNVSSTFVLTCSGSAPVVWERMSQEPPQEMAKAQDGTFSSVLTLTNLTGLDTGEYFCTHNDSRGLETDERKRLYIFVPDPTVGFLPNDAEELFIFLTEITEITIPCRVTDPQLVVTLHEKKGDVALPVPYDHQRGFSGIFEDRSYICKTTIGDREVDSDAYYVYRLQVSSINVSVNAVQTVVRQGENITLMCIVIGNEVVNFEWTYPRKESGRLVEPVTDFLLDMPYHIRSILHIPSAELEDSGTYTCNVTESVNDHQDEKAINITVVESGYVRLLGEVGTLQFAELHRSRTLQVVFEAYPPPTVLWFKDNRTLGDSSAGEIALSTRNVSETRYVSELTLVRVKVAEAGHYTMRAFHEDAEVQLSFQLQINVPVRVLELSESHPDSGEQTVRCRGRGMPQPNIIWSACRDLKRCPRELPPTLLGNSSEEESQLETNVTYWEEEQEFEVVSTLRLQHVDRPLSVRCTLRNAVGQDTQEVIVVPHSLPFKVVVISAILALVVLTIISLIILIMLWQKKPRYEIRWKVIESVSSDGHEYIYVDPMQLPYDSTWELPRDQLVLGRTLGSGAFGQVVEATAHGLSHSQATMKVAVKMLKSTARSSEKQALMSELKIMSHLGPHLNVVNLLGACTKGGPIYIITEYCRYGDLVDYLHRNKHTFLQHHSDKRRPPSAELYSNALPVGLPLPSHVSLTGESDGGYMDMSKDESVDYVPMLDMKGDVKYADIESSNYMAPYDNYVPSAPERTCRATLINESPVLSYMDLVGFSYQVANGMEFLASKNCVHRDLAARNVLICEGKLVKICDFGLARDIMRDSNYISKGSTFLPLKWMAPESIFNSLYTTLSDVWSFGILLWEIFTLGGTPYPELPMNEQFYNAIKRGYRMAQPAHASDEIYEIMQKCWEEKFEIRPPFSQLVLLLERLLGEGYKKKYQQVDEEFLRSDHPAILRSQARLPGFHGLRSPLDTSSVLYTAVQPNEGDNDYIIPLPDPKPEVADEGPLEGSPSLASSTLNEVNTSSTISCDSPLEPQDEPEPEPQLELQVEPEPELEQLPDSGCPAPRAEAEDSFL
Method: as §1

[5] = molecular target: T3, PDGFRα (Homo sapiens, UniProt P16234); assay: as above; format: binding; details: peptide immobilized on streptavidin beads
T3 construct: endogenous in cells
T3 sequence (P16234 24-1089): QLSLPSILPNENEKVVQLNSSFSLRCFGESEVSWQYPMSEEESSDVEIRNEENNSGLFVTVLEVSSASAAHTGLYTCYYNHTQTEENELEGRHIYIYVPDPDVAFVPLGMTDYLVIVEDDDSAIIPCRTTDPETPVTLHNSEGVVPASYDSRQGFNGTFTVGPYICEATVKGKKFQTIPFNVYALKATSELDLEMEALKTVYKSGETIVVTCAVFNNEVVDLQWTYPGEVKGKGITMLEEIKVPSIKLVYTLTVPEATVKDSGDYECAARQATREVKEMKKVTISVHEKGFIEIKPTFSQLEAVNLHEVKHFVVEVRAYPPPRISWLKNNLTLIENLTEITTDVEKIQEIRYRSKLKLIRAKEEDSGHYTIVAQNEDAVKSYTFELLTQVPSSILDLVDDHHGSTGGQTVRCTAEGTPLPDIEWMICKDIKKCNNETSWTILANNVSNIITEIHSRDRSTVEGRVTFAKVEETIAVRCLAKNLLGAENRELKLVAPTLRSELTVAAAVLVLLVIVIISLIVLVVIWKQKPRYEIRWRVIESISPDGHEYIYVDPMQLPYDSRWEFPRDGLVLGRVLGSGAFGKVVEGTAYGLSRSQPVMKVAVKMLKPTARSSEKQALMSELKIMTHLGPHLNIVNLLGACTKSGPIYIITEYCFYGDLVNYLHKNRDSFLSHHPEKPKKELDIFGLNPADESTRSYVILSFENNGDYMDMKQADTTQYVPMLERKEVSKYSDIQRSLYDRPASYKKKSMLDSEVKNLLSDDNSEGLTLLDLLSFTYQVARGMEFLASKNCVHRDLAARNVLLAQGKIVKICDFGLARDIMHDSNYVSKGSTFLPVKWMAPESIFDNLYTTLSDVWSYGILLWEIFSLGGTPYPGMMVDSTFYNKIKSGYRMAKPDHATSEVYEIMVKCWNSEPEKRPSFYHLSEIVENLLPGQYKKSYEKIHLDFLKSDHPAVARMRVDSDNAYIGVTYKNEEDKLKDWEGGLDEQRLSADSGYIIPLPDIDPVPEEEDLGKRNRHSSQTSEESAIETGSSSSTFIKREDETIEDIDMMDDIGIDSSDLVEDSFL
Method: as §1

[6] = system: choroidal neovascularization; assay: laser-induced choroidal neovascularization (CNV); format: in vivo, mouse; details: eye drop, 2 μg/eye daily
Method: FIG. 5A and FIG. 5B show the effect of DUF2C5 treatment on laser-induced CNV. FIG. 5A, Dose-dependent effect of DUF2C5 was tested by intravitreal injection of DUF2C5 0.5 μg, 2 μg, and 10 μg after laser photocoagulation. Neovascularization was assessed by the area of ILB4-staining, and plotted in the graph (N=5 mice in each group, and 4 laser burns were induced in each mouse). Asterisks indicate p<0.05, One-way ANOVA. FIG. 5B, Effect of DUF2C5 as an eye drop was tested in CNV model. After laser photocoagulation, mice were treated daily with either control peptide (2 μg/eye) or DUF2C5 (2 μg/eye) for […]. Neovascularization was assessed by the area of ILB4-staining, and plotted in the graph (N=7 mice in each group, and 4 laser burns were induced in each mouse). Asterisks indicate p<0.05, t-test. […]
Choroidal neovascularization was evaluated by ocular coherence tomography (OCT) and fluorescein angiography at day 7 and 14. […]
The experiments were terminated at day 14 after taking images of OCT and angiography. […] The area of vascular leakage and CNV was quantified using confocal image of CNV staining for lectin B4 using MetaMorph software. Data was plotted and analyzed statistically with Prism 6 (Graph Pad, San Diego Calif.). […]
The effect of DUF2C5 as an eye drop was subsequently tested. […] Neovascularization was assessed by OCT, fluorescein angiography, and staining with ILB4.

CT23: negative control, C-terminal 23-amino acid peptide, residues 1650 to 1672 of KIF13B (RVRASELRSFSRMLAGDPGCSPG)
KD value, VEGFR2 [1]: did not bind
VEGF-induced migration of HUVECs (wound closure) [2]: migrated and closed the wound
EGFR among binding proteins, number of hits [3]: did not interact
PDGFRβ among binding proteins, number of hits [4]: did not interact
PDGFRα among binding proteins, number of hits [5]: did not interact
neovascularization (laser-induced CNV) [6]: did not have any effect
